Changes are numbered by the printed parent chain. In names and notes the source's numbering stands.

Assay [1] addresses RSV fusion glycoprotein (RSV F) on RSV-A2 virus (respiratory syncytial virus, UniProt P03420 26-574). The assay can be described thus: cell-based or functional assay.
Assay [2] concerns the target RSV postfusion F (postF), F deltaFP (respiratory syncytial virus, UniProt P03420 26-513). The assay can be described thus: BLI, IgG on sensor, 100 nM antigen. (In general: Biolayer interferometry detects binding as a change in optical thickness at a sensor tip.)
Assay [3] addresses RSV prefusion F (preF), DS-Cav1 (respiratory syncytial virus, UniProt P03420 26-513). The assay can be described thus: BLI, IgG on sensor.
The target of assay [4] is Respiratory Syncytial Virus fusion glycoprotein (RSV F) on RSV-A2 virus (Respiratory Syncytial Virus, UniProt P03420 26-574). The assay can be described thus: cell-based or functional assay.
Assay [5] concerns the target RSV prefusion F (preF), DS-Cav1 (Respiratory Syncytial Virus, UniProt P03420 26-513). The assay can be described thus: BLI (ForteBio Octet), IgG on anti-human IgG biosensors.
Assay [6] has as its target RSV postfusion F (postF), F ΔFP (Respiratory Syncytial Virus, UniProt P03420 26-513). The assay can be described thus: BLI (ForteBio Octet), IgG on anti-human IgG biosensors, 100 nM antigen, apparent (IgG) KD.
The target of assay [7] is T1, RSV prefusion F (preF), DS-Cav1 stabilized trimer, subtype A (Respiratory Syncytial Virus, subtype A, UniProt P03420 26-513). The assay can be described thus: BLI, apparent IgG KD (Table 9A).
For assay [8], the target named is T2, RSV postfusion F (postF), F ΔFP trimer, subtype A (Respiratory Syncytial Virus, subtype A, UniProt P03420 26-513). The assay can be described thus: BLI, apparent IgG KD (Table 9A).
Assay [9] has as its target RSV F on RSV subtype B virus (mKate-RSV B 18537) (Respiratory Syncytial Virus, subtype B, …, UniProt P13843 26-574). The assay can be described thus: cell-based or functional assay.
Assay [10] has as its target T3, RSV F on RSV subtype A virus (RSV-A2) (Respiratory Syncytial Virus, subtype A, …, UniProt P03420 26-574). The assay can be described thus: cell-based or functional assay.
Assay [11] addresses T2, RSV postfusion F (postF), F ΔFP trimer, …. The assay can be described thus: BLI, IgG on anti-human IgG sensors, 100 nM antigen, apparent KD.
Assay [12] concerns the target T1, RSV prefusion F (preF), DS-Cav1 …. The assay can be described thus: BLI, IgG on anti-human IgG sensors.
Assay [13] has as its target T3, RSV F on RSV subtype A virus (RSV-A2). The assay can be described thus: cell-based or functional assay. The source holds these as a separate data set.
Assay [14] has as its target T4, preF (DS-Cav1) with a C-terminal 8X HisTag and AviTag (Respiratory Syncytial Virus, UniProt P03420 26-513).
T4 construct: not shown: C-terminal 8X HisTag and AviTag
The assay can be described thus: SPR, preF (DS-Cav1) captured on NTA chip, Fab in solution, 1:1 model. In general terms: Surface plasmon resonance follows binding to a sensor surface in real time, without labels.

Assay [15] has as its target T5, postF (RSV F ΔFP) with a C-terminal HRV 3C cleavage site, 8xHisTag and StrepTagII (Respiratory Syncytial Virus, UniProt P03420 26-109; P03420 147-513).
T5 construct: also called postfusion F; not shown: C-terminal HRV 3C cleavage site, 8xHisTag and StrepTagII
The assay can be described thus: SPR, postF captured on NTA chip, Fab in solution, steady-state fit.

B1: ADI-41435 (antibody, V domains shown)
VH: EVQLLESGGGLVKPGGSLRLSCAASGFTFSSYSLNWVRQAPGKGLEWVSSISSSGTYIFYADSVKGRFTISRDNAKDSLFLQMNSLRAEDTAVYYCARARDMGNYDILTGYYRVDAFDIWGQGTMVTVSS
VL: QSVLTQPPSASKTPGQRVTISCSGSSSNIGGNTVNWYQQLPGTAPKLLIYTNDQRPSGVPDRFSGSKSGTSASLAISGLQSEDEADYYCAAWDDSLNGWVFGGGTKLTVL
notes: IgG1
For B1, the “Neutralization IC50 (RSV subtype A)” value in assay [1] was above 25 µg/mL. The same molecule gave a Kd in [2] of 3470 pM. Moreover, the binding result in [3] was “no binding (tested: 100 nM antigen)”.

B2: ADI-43647 (antibody, V domains shown)
VH: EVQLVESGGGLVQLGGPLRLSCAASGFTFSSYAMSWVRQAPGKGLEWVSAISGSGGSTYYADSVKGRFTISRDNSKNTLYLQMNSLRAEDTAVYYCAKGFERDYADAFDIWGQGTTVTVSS
VL: DIRMTQSPSSVSASVGDRVTITCRASQGISSWLAWYQQKPGKAPKLLIYAASSLQSGVPSRFSGSGSGTDFTLTISSLQPEDFATYYCQQANSFPITFGQGTRLEIK
notes: also called Ab 828; Antibody Number 828
On to B2, for which the “Neutralization IC50 (RSV subtype A)” value in assay [4] was above 25 µg/mL. Further, in assay [5], the binding result is “no binding”. In assay [6], the Kd was 44600 pM.

B3: ADI-20975 (antibody, V domains shown)
VH: QVQLVESGTHVKKPGASVKVSCEASDDTFNNKGIVWVRQAPGQGLEWMGWIRPNNGNTKYAQKFQGRVTMTTDASTNTAYMELRSLRSGDTAVYYCAREQFKWNDFYFDYWGQGILVTVSS
VL: SYELMQPPSVSVAPGQTATITCGGSNIGSETVHWYQQKPGQAPVLVVHDDTDRPSGIPERFSGSNSGNTATLTISGVEAGDEADFYCQVRDSRTDDVVFGGGTKLTVL
Turning to B3, the Kd in assay [7] was 92 pM. The Kd in assay [8] was 150 pM. The “neut IC50 (ug/ml) subtype B (graham)” value in assay [9] stood at 0.49 µg/mL. Also, in assay [10], the “Neutralization - RSV A2 IC50 (pM)” value was 67 pM and the “neut IC50 (ug/ml) subtype A (graham)” value came to 0.05 µg/mL.

B4: ADI-41229 (antibody, V domains shown)
VH: QVQLVQSGGGVVQPGRSLKLSCAASGFTFKSYGMHWVRQAPGKGLEWVAVISYDEINKYYADSVKGRFTISRDYSKNTLSLQMNSLTTEDTAMYYCAKPKTTGYYYLDAFDFWGQGTMVTVSS
VL: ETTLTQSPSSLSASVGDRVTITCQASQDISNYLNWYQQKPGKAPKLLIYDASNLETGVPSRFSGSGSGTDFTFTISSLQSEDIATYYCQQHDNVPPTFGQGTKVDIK
notes: also called Ab 551; Antibody Number 551
For the molecule B4, the results for the Kd in assay [7] and in assay [8] were 1100 pM and 710 pM, respectively. Further, in assay [10], the “Neutralization - RSV A2 IC50 (pM)” value worked out at 228 pM. The “neut IC50 (ug/ml) subtype A (wright)” value in assay [10] is 0.066 µg/mL.

B5: ADI-41221 (antibody, V domains shown)
VH: EVQLLESGGGLVKPGGSLRLSCAASGFTFSDYTMNWVRQAPGKGLEWVSSISITSSHIYYADSVKGRFTISRDNAKNSLYLQINSLRAEDTAAYYCARELGFASSSYSYYYGMDVWGQGTTVTVSS
VL: QSALTQPRSVSGSPGQSVTISCTGTSSDVGDYNSVSWYQQHPGTAPKLIIFDVTQRPSGVPDRFSGSKSANTASLTISGLQPEDEADYYCCSFAGNYVFGTGTKVTVL
For the molecule B5, in assay [7], the Kd came to 300 pM. Further, the Kd in [8] turned out to be 320 pM. In [10], the “Neutralization - RSV A2 IC50 (pM)” value stood at 65.4 pM and the “neut IC50 (ug/ml) subtype A (wright)” value was determined as 0.04 µg/mL.

B6: ADI-43639 (antibody, V domains shown)
VH: QVQLVQSGSELKKPGASVKVSCKASGYTFTSYAMNWVRQAPGQGLEWMGWINTNTGNPTYAQGFTGRFVFSLDTSVSTAYLQISSLKAEDTAVYYCAAYGIHDAFDIWGQGTMVTVSS
VL: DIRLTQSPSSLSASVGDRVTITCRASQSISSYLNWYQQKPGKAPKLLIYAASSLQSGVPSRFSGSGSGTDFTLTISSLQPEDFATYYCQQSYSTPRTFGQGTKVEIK
For the molecule B6, the Kd in assay [11] came to 233000 pM. Also, the binding result in assay [12] is given as “no binding (tested: 100 nM antigen)”. For the same molecule, the “Neutralization IC50 (RSV subtype A)” value in assay [13] is above 25 µg/mL.

B7: ADI-41420 (antibody, V domains shown)
VH: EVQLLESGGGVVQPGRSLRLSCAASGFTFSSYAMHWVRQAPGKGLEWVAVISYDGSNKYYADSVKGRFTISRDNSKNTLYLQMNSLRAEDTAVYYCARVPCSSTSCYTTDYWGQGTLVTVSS
VL: QPVLTQPPSVSGSPGQSVTISCTGTSSDVGSYNRVSWYQQPPGTAPKLMIYEVSNRPSGVPDRFSGSKSGNTASLTISGLQAEDEADYYCSSYTSSSPVFGGGTKVTVL
notes: IgG1
Regarding B7, the “Neutralization IC50 (RSV subtype A)” value in assay [1] is above 25 µg/mL. This molecule also gave a Kd in [2] of 110000 pM. For the same molecule, in assay [3], the binding result is recorded as “no binding (tested: 100 nM antigen)”.

B8: ADI-43648 (antibody, V domains shown)
VH: EVQLVQSGAEVKKPGASVKVSCKASGYTFTSYDINWVRQATGQGLEWMGWMNPNSGNTGYAQKFQGRVTMTRNTSISTAYMELSSLRSEDTAVYYCATRPAALDYWGQGTLVTVSS
VL: QPVLTQPLSVSVALGQTARITCGGNNIGSKNVHWYQQKPGQAPVLIIYRDSNRPSGIPERFSGSNSGNTATLTISRAQAGDEADYYCQVWDSSTWVFGGGTKLTVL
In the case of B8, the “Neutralization IC50 (RSV subtype A)” value in [4] was above 25 µg/mL. For the same molecule, in assay [5], the binding result is on record as “no binding”. Moreover, the Kd in assay [6] came to 28600 pM.

B9: ADI-14405 (antibody, V domains shown)
VH: QVQLVQSGTEVKKPGASVKVSCKASGYTFTNYDISWVRQAPGQGLEWMGWISGSTGNTIYAQNLQGRLTMTTDTSTSTAYMELRSLRSDDTAIYYCARDNVGYASGNYFDYWGQGTLVTVSS
VL: SYVLTQPPSVSVAPGKTARIPCGGNNIGSKSVHWYQQRPGQAPVLVIYYDSVRPSGIPERFSGSNSGNTATLTISTVEAGDEADFYCQVWDSSRDHEVFGGGTKLTVL
notes: also called Ab 71; Antibody Number 71
With B9, the Kd in assay [7] stood at 140 pM; in [8] it was 12000 pM. For the same molecule, the “neut IC50 (ug/ml) subtype B (graham)” value in assay [9] was 0.04 µg/mL. Also, the “Neutralization - RSV A2 IC50 (pM)” value in assay [10] was determined as 58.3 pM. The “neut IC50 (ug/ml) subtype A (graham)” value in assay [10] was found to be 0.04 µg/mL.

B10: ADI-19425 Fab variant, light chain Y31A (Fab, V domains shown)
VH: EVQLVESGGGLVKPGGSLRLSCAASGFTFSSYSMNWVRQAPGKGLEWVSSISSSSSYIYYADSVKGRFTISRDNAKNSLYLQMNSLRAEDTAVYYCARLGYCSGGSCHFDYWGQGTLVTVSS
VL: QPVLTQPPSVSGAPGQRVTISCTGSSSNIGAGADVHWYQQLPGTAPKLLIYGNSNRPSGVPDRFSGSKSGTSASLAITGLQAEDEADYYCQSYDSSLSGFYVFGTGTKLTVL
notes: also called Y33A
Take B10: the “fold reduction in affinity relative to ADI-19425 Fab” value in assay [14] was above 20 fold.

B11: ADI-19425 Fab variant, light chain Y91A (Fab, V domains shown)
VH: B10 VH
VL: B10 VL with A33Y, Y93A
notes: also called Y93A
In the case of B11, the “fold reduction in affinity relative to ADI-19425 Fab” value in assay [14] was above 80 fold.

B12: ADI-41596 (antibody, V domains shown)
VH: QVQLQQWGAGLLKPSETLSLTCAVYGDSFSGYFWTWIRQPPGKGLEWIGEINLSGSTNYNPSLKSRVTILVDTSKNQFSLKLSSVTAADTAVYYCARGLHVSDDQDSSGYYFHPGSFDYWGQGTLVTVSS
VL: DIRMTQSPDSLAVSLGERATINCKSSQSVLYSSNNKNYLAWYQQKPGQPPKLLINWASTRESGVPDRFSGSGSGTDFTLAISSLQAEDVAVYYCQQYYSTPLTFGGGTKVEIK
notes: also called Ab 870; Antibody Number 870
With B12, in assay [7], the Kd turned out to be 300 pM. Further, the Kd in assay [8] came to 440 pM. In assay [10], the “Neutralization - RSV A2 IC50 (pM)” value was 180 pM and the “neut IC50 (ug/ml) subtype A (wright)” value came to 0.054 µg/mL.

B13: ADI-41406 (antibody, V domains shown)
VH: EVQLVESGGNLVQPGGSLRLSCAASGFTFSSYVMNWVRQAPGKGLEWVSGISGSGGTSYYADSVKGRFTISRDNSNNTLYLQMKSLRAEDTAVYYCAKDPRFQKWLIEGTNWFDSWGQGTLVTVSS
VL: DIQVTQSPSSLSASVGDRVTITCRASQDVSNYLAWFQQKPGTAPKSLIYAASILQSGVPSKFRGSGSGTDFSLTISSLQPEDFATYYCQQYRSFPPTFGGGTKVEIK
notes: IgG1; also called Ab 698
Take B13: in assay [1], the “Neutralization IC50 (RSV subtype A)” value is above 25 µg/mL. This molecule also displayed a Kd in assay [2] of 571 pM. Further, the binding result in assay [3] is “no binding (tested: 100 nM antigen)”.

B14: ADI-43638 (antibody, V domains shown)
VH: QVQLQQWGAGLLKPSETLSLTCAVYGGSFSGYYWSWIRQPPGKGLEWIGEINHSGSTNYNPSLKSRVTISVDTSKNQFSLKLSSVTAADTAVYYCARGVPVLRYFDWLRFGYGMDVWGQGTTVTVSS
VL: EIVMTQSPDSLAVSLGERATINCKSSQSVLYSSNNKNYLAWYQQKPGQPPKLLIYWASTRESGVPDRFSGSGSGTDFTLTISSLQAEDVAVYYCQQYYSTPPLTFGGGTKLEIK
Regarding B14, in assay [11], the Kd came to 9930 pM. In assay [12], the binding result is given as “no binding (tested: 100 nM antigen)”. Besides, the “Neutralization IC50 (RSV subtype A)” value in assay [13] is above 25 µg/mL.

B15: ADI-14359 R50L Fab (germline reverted variant) (Fab, V domains shown)
VH: QVQLVQSGPALVKPTQTLTLTCTFSGFSLSTSGMCVSWIRQPPGKALEWLALIDWDDDKYYSTSLKTRLTISKDTSKNQVVLTMTNMDPVDTATYYCARATNYDSSGYYSLYFDYWGQGTLVTVSS
VL: not shown
Regarding B15, in assay [15], the “fold reduction in affinity relative to ADI-14359 Fab” value is above 30 fold.

Values taken from patent US20260258115A1 (MAPP BIOPHARMACEUTICAL, published 2026).
